# B1: Speckle-type POZ protein (Homo sapiens), O43791 (parent)
# chain: MSRVPSPPPPAEMSSGPVAESWCYTQIKVVKFSYMWTINNFSFCREEMGEVIKSSTFSSGANDKLKWCLRVNPKGLDEESKDYLSLYLLLVSCPKSEVRAKFKFSILNAKGEETKAMESQRAYRFVQGKDWGFKKFIRRDFLLDEANGLLPDDKLTLFCEVSVVQDSVNISGQNTMNMVKVPECRLADELGGLWENSRFTDCCLCVAGQEFQAHKAILAARSPVFSAMFEHEMEESKKNRVEINDVEPEVFKEMMCFIYTGKAPNLDKMADDLLAAADKYALERLKVMCEDALCSNLSVENAAEILILADLHSADQLKTQAVDFINYHASDVLETSGWKSMVVSHPHLVAEAYRSLASAQCPFLGPPRKRLKQS
# Variants of: B1
# Details: with ist1_human IST1, P53990
# Sequence of ist1_human IST1, P53990 (P53990 whole entry): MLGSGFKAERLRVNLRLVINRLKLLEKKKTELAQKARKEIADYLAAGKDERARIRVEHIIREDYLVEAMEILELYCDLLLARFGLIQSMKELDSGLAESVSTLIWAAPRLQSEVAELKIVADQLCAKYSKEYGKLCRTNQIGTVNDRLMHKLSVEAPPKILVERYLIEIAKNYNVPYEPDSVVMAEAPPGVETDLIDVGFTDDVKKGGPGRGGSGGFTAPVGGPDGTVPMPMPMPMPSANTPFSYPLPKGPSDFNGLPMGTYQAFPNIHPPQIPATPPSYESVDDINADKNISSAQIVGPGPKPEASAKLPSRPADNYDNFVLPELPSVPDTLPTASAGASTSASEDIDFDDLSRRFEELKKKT
row,effect of a mutation on the interaction,Variant
1,with no effect,MSRVPSPPPPAEMSSGPVAESWCYTQIKVVKFSYMWTINNFSFCREEMGEVIKSSTFSSGANDKLKWCLRVNPKGLDEESKDYLSLCLLLVSCPKSEVRAKFKFSILNAKGEETKAMESQRAYRFVQGKDWGFKKFIRRDFLLDEANGLLPDDKLTLFCEVSVVQDSVNISGQNTMNMVKVPECRLADELGGLWENSRFTDCCLCVAGQEFQAHKAILAARSPVFSAMFEHEMEESKKNRVEINDVEPEVFKEMMCFIYTGKAPNLDKMADDLLAAADKYALERLKVMCEDALCSNLSVENAAEILILADLHSADQLKTQAVDFINYHASDVLETSGWKSMVVSHPHLVAEAYRSLASAQCPFLGPPRKRLKQS [Y87C]

# Variants of: B1
# Details: with jak1_human JAK1, P23458
row,effect of a mutation on the interaction,Variant
1,with no effect,MSRVPSPPPPAEMSSGPVAESWCYTQIKVVKFSYMWTINNFSFCREEMGEVIKSSTFSSGANDKLKWCLRVNPKGLDEESKDYLSLCLLLVSCPKSEVRAKFKFSILNAKGEETKAMESQRAYRFVQGKDWGFKKFIRRDFLLDEANGLLPDDKLTLFCEVSVVQDSVNISGQNTMNMVKVPECRLADELGGLWENSRFTDCCLCVAGQEFQAHKAILAARSPVFSAMFEHEMEESKKNRVEINDVEPEVFKEMMCFIYTGKAPNLDKMADDLLAAADKYALERLKVMCEDALCSNLSVENAAEILILADLHSADQLKTQAVDFINYHASDVLETSGWKSMVVSHPHLVAEAYRSLASAQCPFLGPPRKRLKQS [Y87C]

# Variants of: B1
# Details: with jak3_human JAK3, P52333
# Sequence of jak3_human JAK3, P52333 (P52333 whole entry): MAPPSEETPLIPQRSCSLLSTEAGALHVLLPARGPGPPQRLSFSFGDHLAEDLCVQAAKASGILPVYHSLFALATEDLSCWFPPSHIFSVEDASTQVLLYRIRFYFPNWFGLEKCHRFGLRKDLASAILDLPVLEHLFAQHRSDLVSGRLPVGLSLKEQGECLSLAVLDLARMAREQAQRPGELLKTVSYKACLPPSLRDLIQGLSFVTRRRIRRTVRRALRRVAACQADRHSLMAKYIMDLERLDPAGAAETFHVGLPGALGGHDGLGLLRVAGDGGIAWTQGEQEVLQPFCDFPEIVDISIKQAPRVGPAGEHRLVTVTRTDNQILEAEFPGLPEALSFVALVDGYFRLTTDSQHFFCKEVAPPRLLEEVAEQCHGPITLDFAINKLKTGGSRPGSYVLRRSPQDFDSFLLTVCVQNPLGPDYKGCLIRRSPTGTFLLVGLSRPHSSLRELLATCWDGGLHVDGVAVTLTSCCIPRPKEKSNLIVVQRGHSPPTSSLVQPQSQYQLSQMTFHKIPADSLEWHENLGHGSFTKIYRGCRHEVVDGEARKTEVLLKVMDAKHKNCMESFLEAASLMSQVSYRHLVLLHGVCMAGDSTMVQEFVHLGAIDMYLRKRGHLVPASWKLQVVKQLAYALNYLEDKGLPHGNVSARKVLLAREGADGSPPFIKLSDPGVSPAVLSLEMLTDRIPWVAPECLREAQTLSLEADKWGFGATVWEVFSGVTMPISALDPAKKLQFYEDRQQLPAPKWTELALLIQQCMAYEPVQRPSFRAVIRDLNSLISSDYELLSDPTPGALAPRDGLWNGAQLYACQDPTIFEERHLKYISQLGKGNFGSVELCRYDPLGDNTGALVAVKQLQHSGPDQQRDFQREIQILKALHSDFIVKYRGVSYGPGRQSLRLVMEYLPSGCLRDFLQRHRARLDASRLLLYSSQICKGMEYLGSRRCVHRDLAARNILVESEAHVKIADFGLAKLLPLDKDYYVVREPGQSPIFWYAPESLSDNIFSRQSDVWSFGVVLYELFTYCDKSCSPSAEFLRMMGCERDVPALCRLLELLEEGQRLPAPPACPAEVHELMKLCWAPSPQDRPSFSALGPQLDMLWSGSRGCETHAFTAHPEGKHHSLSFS
row,effect of a mutation on the interaction,Variant
1,with no effect,MSRVPSPPPPAEMSSGPVAESWCYTQIKVVKFSYMWTINNFSFCREEMGEVIKSSTFSSGANDKLKWCLRVNPKGLDEESKDYLSLCLLLVSCPKSEVRAKFKFSILNAKGEETKAMESQRAYRFVQGKDWGFKKFIRRDFLLDEANGLLPDDKLTLFCEVSVVQDSVNISGQNTMNMVKVPECRLADELGGLWENSRFTDCCLCVAGQEFQAHKAILAARSPVFSAMFEHEMEESKKNRVEINDVEPEVFKEMMCFIYTGKAPNLDKMADDLLAAADKYALERLKVMCEDALCSNLSVENAAEILILADLHSADQLKTQAVDFINYHASDVLETSGWKSMVVSHPHLVAEAYRSLASAQCPFLGPPRKRLKQS [Y87C]

# Variants of: B1
# Details: with kat2a_human KAT2A
row,effect of a mutation on the interaction,Variant
1,with no effect,MSRVPSPPPPAEMSSGPVAESWCYTQIKVVKFSYMWTINNFSFCREEMGEVIKSSTFSSGANDKLKWCLRVNPKGLDEESKDYLSLCLLLVSCPKSEVRAKFKFSILNAKGEETKAMESQRAYRFVQGKDWGFKKFIRRDFLLDEANGLLPDDKLTLFCEVSVVQDSVNISGQNTMNMVKVPECRLADELGGLWENSRFTDCCLCVAGQEFQAHKAILAARSPVFSAMFEHEMEESKKNRVEINDVEPEVFKEMMCFIYTGKAPNLDKMADDLLAAADKYALERLKVMCEDALCSNLSVENAAEILILADLHSADQLKTQAVDFINYHASDVLETSGWKSMVVSHPHLVAEAYRSLASAQCPFLGPPRKRLKQS [Y87C]

# Variants of: B1
# Details: with kdm5a_human KDM5A
row,effect of a mutation on the interaction,Variant
1,with no effect,MSRVPSPPPPAEMSSGPVAESWCYTQIKVVKFSYMWTINNFSFCREEMGEVIKSSTFSSGANDKLKWCLRVNPKGLDEESKDYLSLCLLLVSCPKSEVRAKFKFSILNAKGEETKAMESQRAYRFVQGKDWGFKKFIRRDFLLDEANGLLPDDKLTLFCEVSVVQDSVNISGQNTMNMVKVPECRLADELGGLWENSRFTDCCLCVAGQEFQAHKAILAARSPVFSAMFEHEMEESKKNRVEINDVEPEVFKEMMCFIYTGKAPNLDKMADDLLAAADKYALERLKVMCEDALCSNLSVENAAEILILADLHSADQLKTQAVDFINYHASDVLETSGWKSMVVSHPHLVAEAYRSLASAQCPFLGPPRKRLKQS [Y87C]

# Variants of: B1
# Details: with kdm5c_human KDM5C
row,effect of a mutation on the interaction,Variant
1,with no effect,MSRVPSPPPPAEMSSGPVAESWCYTQIKVVKFSYMWTINNFSFCREEMGEVIKSSTFSSGANDKLKWCLRVNPKGLDEESKDYLSLCLLLVSCPKSEVRAKFKFSILNAKGEETKAMESQRAYRFVQGKDWGFKKFIRRDFLLDEANGLLPDDKLTLFCEVSVVQDSVNISGQNTMNMVKVPECRLADELGGLWENSRFTDCCLCVAGQEFQAHKAILAARSPVFSAMFEHEMEESKKNRVEINDVEPEVFKEMMCFIYTGKAPNLDKMADDLLAAADKYALERLKVMCEDALCSNLSVENAAEILILADLHSADQLKTQAVDFINYHASDVLETSGWKSMVVSHPHLVAEAYRSLASAQCPFLGPPRKRLKQS [Y87C]

# Variants of: B1
# Details: with kdm6a_human KDM6A
row,effect of a mutation on the interaction,Variant
1,with no effect,MSRVPSPPPPAEMSSGPVAESWCYTQIKVVKFSYMWTINNFSFCREEMGEVIKSSTFSSGANDKLKWCLRVNPKGLDEESKDYLSLCLLLVSCPKSEVRAKFKFSILNAKGEETKAMESQRAYRFVQGKDWGFKKFIRRDFLLDEANGLLPDDKLTLFCEVSVVQDSVNISGQNTMNMVKVPECRLADELGGLWENSRFTDCCLCVAGQEFQAHKAILAARSPVFSAMFEHEMEESKKNRVEINDVEPEVFKEMMCFIYTGKAPNLDKMADDLLAAADKYALERLKVMCEDALCSNLSVENAAEILILADLHSADQLKTQAVDFINYHASDVLETSGWKSMVVSHPHLVAEAYRSLASAQCPFLGPPRKRLKQS [Y87C]

# Variants of: B1
# Details: with vgfr2_human KDR
row,effect of a mutation on the interaction,Variant
1,with no effect,MSRVPSPPPPAEMSSGPVAESWCYTQIKVVKFSYMWTINNFSFCREEMGEVIKSSTFSSGANDKLKWCLRVNPKGLDEESKDYLSLCLLLVSCPKSEVRAKFKFSILNAKGEETKAMESQRAYRFVQGKDWGFKKFIRRDFLLDEANGLLPDDKLTLFCEVSVVQDSVNISGQNTMNMVKVPECRLADELGGLWENSRFTDCCLCVAGQEFQAHKAILAARSPVFSAMFEHEMEESKKNRVEINDVEPEVFKEMMCFIYTGKAPNLDKMADDLLAAADKYALERLKVMCEDALCSNLSVENAAEILILADLHSADQLKTQAVDFINYHASDVLETSGWKSMVVSHPHLVAEAYRSLASAQCPFLGPPRKRLKQS [Y87C]

# Variants of: B1
# Details: with lims1_human LIMS1, P48059
# Sequence of lims1_human LIMS1, P48059 (P48059 whole entry): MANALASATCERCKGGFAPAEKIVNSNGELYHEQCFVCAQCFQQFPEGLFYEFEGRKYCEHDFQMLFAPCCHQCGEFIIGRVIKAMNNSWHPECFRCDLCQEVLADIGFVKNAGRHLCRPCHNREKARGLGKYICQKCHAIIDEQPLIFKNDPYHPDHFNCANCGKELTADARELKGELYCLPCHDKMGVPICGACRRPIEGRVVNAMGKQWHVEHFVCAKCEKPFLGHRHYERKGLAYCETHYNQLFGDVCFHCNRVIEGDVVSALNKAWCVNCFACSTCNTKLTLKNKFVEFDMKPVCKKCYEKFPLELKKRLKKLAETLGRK
row,effect of a mutation on the interaction,Variant
1,with no effect,MSRVPSPPPPAEMSSGPVAESWCYTQIKVVKFSYMWTINNFSFCREEMGEVIKSSTFSSGANDKLKWCLRVNPKGLDEESKDYLSLCLLLVSCPKSEVRAKFKFSILNAKGEETKAMESQRAYRFVQGKDWGFKKFIRRDFLLDEANGLLPDDKLTLFCEVSVVQDSVNISGQNTMNMVKVPECRLADELGGLWENSRFTDCCLCVAGQEFQAHKAILAARSPVFSAMFEHEMEESKKNRVEINDVEPEVFKEMMCFIYTGKAPNLDKMADDLLAAADKYALERLKVMCEDALCSNLSVENAAEILILADLHSADQLKTQAVDFINYHASDVLETSGWKSMVVSHPHLVAEAYRSLASAQCPFLGPPRKRLKQS [Y87C]

# Variants of: B1
# Details: with maga6_human MAGEA6, P43360
# Sequence of maga6_human MAGEA6, P43360 (P43360 whole entry): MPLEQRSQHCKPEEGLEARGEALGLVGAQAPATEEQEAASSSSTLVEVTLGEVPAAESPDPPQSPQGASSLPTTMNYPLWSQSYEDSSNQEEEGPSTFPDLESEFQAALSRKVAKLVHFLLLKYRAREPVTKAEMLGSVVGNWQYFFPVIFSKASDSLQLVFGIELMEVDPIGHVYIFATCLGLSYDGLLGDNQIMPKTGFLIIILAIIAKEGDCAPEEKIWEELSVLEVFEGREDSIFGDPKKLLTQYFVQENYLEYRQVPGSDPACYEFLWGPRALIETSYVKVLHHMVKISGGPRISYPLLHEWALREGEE
row,effect of a mutation on the interaction,Variant
1,with no effect,MSRVPSPPPPAEMSSGPVAESWCYTQIKVVKFSYMWTINNFSFCREEMGEVIKSSTFSSGANDKLKWCLRVNPKGLDEESKDYLSLCLLLVSCPKSEVRAKFKFSILNAKGEETKAMESQRAYRFVQGKDWGFKKFIRRDFLLDEANGLLPDDKLTLFCEVSVVQDSVNISGQNTMNMVKVPECRLADELGGLWENSRFTDCCLCVAGQEFQAHKAILAARSPVFSAMFEHEMEESKKNRVEINDVEPEVFKEMMCFIYTGKAPNLDKMADDLLAAADKYALERLKVMCEDALCSNLSVENAAEILILADLHSADQLKTQAVDFINYHASDVLETSGWKSMVVSHPHLVAEAYRSLASAQCPFLGPPRKRLKQS [Y87C]

# Variants of: B1
# Details: with m3k1_human MAP3K1, Q13233
row,effect of a mutation on the interaction,Variant
1,with no effect,MSRVPSPPPPAEMSSGPVAESWCYTQIKVVKFSYMWTINNFSFCREEMGEVIKSSTFSSGANDKLKWCLRVNPKGLDEESKDYLSLCLLLVSCPKSEVRAKFKFSILNAKGEETKAMESQRAYRFVQGKDWGFKKFIRRDFLLDEANGLLPDDKLTLFCEVSVVQDSVNISGQNTMNMVKVPECRLADELGGLWENSRFTDCCLCVAGQEFQAHKAILAARSPVFSAMFEHEMEESKKNRVEINDVEPEVFKEMMCFIYTGKAPNLDKMADDLLAAADKYALERLKVMCEDALCSNLSVENAAEILILADLHSADQLKTQAVDFINYHASDVLETSGWKSMVVSHPHLVAEAYRSLASAQCPFLGPPRKRLKQS [Y87C]

# Variants of: B1
# Details: with mk10_human MAPK10, P53779
# Sequence of mk10_human MAPK10, P53779 (P53779 whole entry): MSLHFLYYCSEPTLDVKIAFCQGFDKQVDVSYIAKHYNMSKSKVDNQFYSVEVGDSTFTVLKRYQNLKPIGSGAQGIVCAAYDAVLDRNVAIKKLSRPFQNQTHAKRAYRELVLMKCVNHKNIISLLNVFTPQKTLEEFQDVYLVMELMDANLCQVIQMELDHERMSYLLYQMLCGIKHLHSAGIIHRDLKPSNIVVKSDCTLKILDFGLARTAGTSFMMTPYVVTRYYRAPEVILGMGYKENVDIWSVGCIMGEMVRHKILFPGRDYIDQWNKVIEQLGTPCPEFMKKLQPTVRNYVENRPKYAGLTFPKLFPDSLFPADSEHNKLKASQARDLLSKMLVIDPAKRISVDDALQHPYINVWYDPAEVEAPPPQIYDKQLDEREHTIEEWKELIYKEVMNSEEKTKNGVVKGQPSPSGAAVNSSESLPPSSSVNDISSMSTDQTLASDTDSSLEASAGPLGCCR
row,effect of a mutation on the interaction,Variant
1,with no effect,MSRVPSPPPPAEMSSGPVAESWCYTQIKVVKFSYMWTINNFSFCREEMGEVIKSSTFSSGANDKLKWCLRVNPKGLDEESKDYLSLCLLLVSCPKSEVRAKFKFSILNAKGEETKAMESQRAYRFVQGKDWGFKKFIRRDFLLDEANGLLPDDKLTLFCEVSVVQDSVNISGQNTMNMVKVPECRLADELGGLWENSRFTDCCLCVAGQEFQAHKAILAARSPVFSAMFEHEMEESKKNRVEINDVEPEVFKEMMCFIYTGKAPNLDKMADDLLAAADKYALERLKVMCEDALCSNLSVENAAEILILADLHSADQLKTQAVDFINYHASDVLETSGWKSMVVSHPHLVAEAYRSLASAQCPFLGPPRKRLKQS [Y87C]

# Variants of: B1
# Details: with mk14_human MAPK14, Q16539
# Sequence of mk14_human MAPK14, Q16539 (Q16539 whole entry): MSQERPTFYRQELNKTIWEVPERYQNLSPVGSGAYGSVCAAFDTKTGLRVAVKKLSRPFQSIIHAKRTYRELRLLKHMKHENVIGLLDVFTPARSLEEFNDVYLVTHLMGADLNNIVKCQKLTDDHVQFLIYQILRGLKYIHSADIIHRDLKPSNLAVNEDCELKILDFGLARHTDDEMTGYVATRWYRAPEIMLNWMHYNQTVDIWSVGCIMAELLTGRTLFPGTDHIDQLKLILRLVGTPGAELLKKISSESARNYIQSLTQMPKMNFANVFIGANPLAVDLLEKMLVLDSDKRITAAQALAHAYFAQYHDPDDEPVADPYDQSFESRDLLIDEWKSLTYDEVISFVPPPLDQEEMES
row,effect of a mutation on the interaction,Variant
1,with no effect,MSRVPSPPPPAEMSSGPVAESWCYTQIKVVKFSYMWTINNFSFCREEMGEVIKSSTFSSGANDKLKWCLRVNPKGLDEESKDYLSLCLLLVSCPKSEVRAKFKFSILNAKGEETKAMESQRAYRFVQGKDWGFKKFIRRDFLLDEANGLLPDDKLTLFCEVSVVQDSVNISGQNTMNMVKVPECRLADELGGLWENSRFTDCCLCVAGQEFQAHKAILAARSPVFSAMFEHEMEESKKNRVEINDVEPEVFKEMMCFIYTGKAPNLDKMADDLLAAADKYALERLKVMCEDALCSNLSVENAAEILILADLHSADQLKTQAVDFINYHASDVLETSGWKSMVVSHPHLVAEAYRSLASAQCPFLGPPRKRLKQS [Y87C]

# Variants of: B1
# Details: with mk03_human MAPK3, P27361
# Sequence of mk03_human MAPK3, P27361 (P27361 whole entry): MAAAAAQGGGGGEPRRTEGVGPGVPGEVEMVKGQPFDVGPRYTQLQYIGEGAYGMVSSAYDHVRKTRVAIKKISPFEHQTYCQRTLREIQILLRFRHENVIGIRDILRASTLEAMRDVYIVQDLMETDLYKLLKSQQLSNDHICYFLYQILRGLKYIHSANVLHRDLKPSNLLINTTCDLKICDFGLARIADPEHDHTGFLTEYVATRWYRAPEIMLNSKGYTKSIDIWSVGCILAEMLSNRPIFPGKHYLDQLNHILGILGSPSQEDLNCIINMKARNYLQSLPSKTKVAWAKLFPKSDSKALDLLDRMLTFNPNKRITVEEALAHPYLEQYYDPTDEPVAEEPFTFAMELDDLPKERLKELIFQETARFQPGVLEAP
row,effect of a mutation on the interaction,Variant
1,with no effect,MSRVPSPPPPAEMSSGPVAESWCYTQIKVVKFSYMWTINNFSFCREEMGEVIKSSTFSSGANDKLKWCLRVNPKGLDEESKDYLSLCLLLVSCPKSEVRAKFKFSILNAKGEETKAMESQRAYRFVQGKDWGFKKFIRRDFLLDEANGLLPDDKLTLFCEVSVVQDSVNISGQNTMNMVKVPECRLADELGGLWENSRFTDCCLCVAGQEFQAHKAILAARSPVFSAMFEHEMEESKKNRVEINDVEPEVFKEMMCFIYTGKAPNLDKMADDLLAAADKYALERLKVMCEDALCSNLSVENAAEILILADLHSADQLKTQAVDFINYHASDVLETSGWKSMVVSHPHLVAEAYRSLASAQCPFLGPPRKRLKQS [Y87C]

# Variants of: B1
# Details: with mk04_human MAPK4, P31152
# Sequence of mk04_human MAPK4, P31152 (P31152 whole entry): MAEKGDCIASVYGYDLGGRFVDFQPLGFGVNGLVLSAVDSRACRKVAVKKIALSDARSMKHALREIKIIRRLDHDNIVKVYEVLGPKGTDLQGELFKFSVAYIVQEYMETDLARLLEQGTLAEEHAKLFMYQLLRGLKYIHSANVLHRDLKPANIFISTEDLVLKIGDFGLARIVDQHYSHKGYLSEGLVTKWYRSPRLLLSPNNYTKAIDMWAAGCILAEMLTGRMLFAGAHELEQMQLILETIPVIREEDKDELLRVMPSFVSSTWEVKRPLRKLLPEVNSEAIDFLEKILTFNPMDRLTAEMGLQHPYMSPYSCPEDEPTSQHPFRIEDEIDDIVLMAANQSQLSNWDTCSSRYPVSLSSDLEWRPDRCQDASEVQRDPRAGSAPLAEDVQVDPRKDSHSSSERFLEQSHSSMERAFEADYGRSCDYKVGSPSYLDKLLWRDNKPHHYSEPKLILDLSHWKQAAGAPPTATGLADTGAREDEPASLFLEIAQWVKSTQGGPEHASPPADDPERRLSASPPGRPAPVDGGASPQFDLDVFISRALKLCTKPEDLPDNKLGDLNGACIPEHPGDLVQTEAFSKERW
row,effect of a mutation on the interaction,Variant
1,with no effect,MSRVPSPPPPAEMSSGPVAESWCYTQIKVVKFSYMWTINNFSFCREEMGEVIKSSTFSSGANDKLKWCLRVNPKGLDEESKDYLSLCLLLVSCPKSEVRAKFKFSILNAKGEETKAMESQRAYRFVQGKDWGFKKFIRRDFLLDEANGLLPDDKLTLFCEVSVVQDSVNISGQNTMNMVKVPECRLADELGGLWENSRFTDCCLCVAGQEFQAHKAILAARSPVFSAMFEHEMEESKKNRVEINDVEPEVFKEMMCFIYTGKAPNLDKMADDLLAAADKYALERLKVMCEDALCSNLSVENAAEILILADLHSADQLKTQAVDFINYHASDVLETSGWKSMVVSHPHLVAEAYRSLASAQCPFLGPPRKRLKQS [Y87C]
